Reference: US20040137643A1, “Immunodetection and quantification methods” (priority 2002, published 2004)
Where “and” joins values, the source holds several entries; their conditions need not be identical. Identical values can stand only once. Like-named read-outs stand apart in the source and are kept apart here.

Experiment: C4H enzyme assay: para-hydroxylation of cinnamic acid by yeast microsomes, HPLC quantification of p-coumarate
Type: biochemical
Conditions: for Km: Arabidopsis C4H in WAT11 yeast microsomes, substrate cinnamic acid; for Turnover (min^−1 ± SD), CO difference spectrum: P450 concentration from CO difference spectroscopy; for turnover rate, calculated using P450 concentrations from CO difference spectroscopy: spectroscopic P450 quantification
Protocol: C4H assays were carried out in the presence of various concentrations of cinnamic acid as previously described (Humphreys et al., 1999). Briefly, an NADPH regenerating system consisting of 1 mM NADP^+, 10 mM glucose-6-phosphate, and 1 unit of glucose-6-phosphate dehydrogenase (Sigma, St. Louis, Mo.) was pre-incubated at 30° C. for 5 min to generate NADPH in a final volume of 450 PL of assay buffer. Assays were initiated by the addition of 50 μL of appropriately diluted microsomes and were incubated at 30° C. for 20 min before the reactions were stopped with 100 μL of 3N HCl. Samples were centrifuged for 20 min at 14,000×g and then analyzed by HPLC (Shimadzu Corp., Kyoto, Japan) using a Microsorb-MV C-18 column (Varian Analytical Instruments, Walnut Creek, Calif.) using the following method: solvent A, 1.5% acetic acid in water; solvent B, acetonitrile; flow rate of 1 mL min^−1; 0 to […] in 1.5 min, […], 35 to 100% B in 1 min, 100% B for 5 min. Reaction product was quantified by UV detection at 308 nm. Assays conducted with microsomes isolated from yeast transformed with pYeDP60 served as negative controls.
To evaluate the impact of introducing an amino-terminal FLAG epitotope on C4H enzymatic activity, kinetic parameters of both native and FLAG-C4H were determined using the same microsomal fractions used for protein quantification. It is important to note that the WAT11 yeast strain was chosen because this strain is engineered to express the Arabidopsis P450 reductase gene ATR1 under the control of the same galactose promoter used to drive P450 expression, eliminating the need to reconstitute the P450/P450 reductase system. Consistent with subcellular targeting of wild-type C4H expressed in yeast, both the native and FLAG-C4H activity was found in the microsomal fraction. […] Turnover rates of native and FLAG-C4H were also evaluated, using both spectroscopic and immunological P450 quantitation. When calculated using P450 concentrations obtained from CO difference spectroscopy, native C4H and FLAG-C4H turnover rates were determined to be 28±0.1 and 83±2.0 min^1, respectively. This difference, although significant, may be associated with variability in reductase activity in this heterologous expression system (data not shown). In comparison to CO difference spectroscopy, the lower concentration of FLAG-C4H obtained by Midwestern blot gives a correspondingly higher turnover rate of 380±7 min^−1.

[1] = P450 concentration from Midwestern blot

| Molecule | Km (n=3, read-out: Km app. (±SD)) [µM] | Km (read-out: Km^aPP) [µM] | Turnover (min^−1 ± SD), CO difference spectrum [min⁻¹] | turnover rate, calculated using P450 concentrations from CO difference spectroscopy [min^1] | Turnover (min^−1 ± SD), Midwestern blot [1] [min⁻¹] | turnover rate, calculated using immunological quantification [1] [min^1] | Turnover (min^−1 ± SD), Midwestern blot (P450 concentration from Midwestern blot, listed as FLAG-C4H) [min⁻¹] | turnover rate, calculated using P450 concentrations from CO difference spectroscopy (listed as FLAG-C4H) |
| --- | --- | --- | --- | --- | --- | --- | --- | --- |
| Wild type C4H: Arabidopsis P450 cinnamate 4-hydroxylase (C4H) expressed in yeast from pYeDP60-C4H (protein, UniProt P92994 1-505, looked up) Trans-cinnamate …: MDLLLLEKSLIAVFVAVILATVISKLRGKKLKLPPGPIPIPIFGNWLQVGDDLNHRNLVDYAKKFGDLFLLRMGQRNLVVVSSPDLTKEVLLTQGVEFGSRTRNVVFDIFTGKGQDMVFTVYGEHWRKMRRIMTVPFFTNKVVQQNREGWEFEAASVVEDVKKNPDSATKGIVLRKRLQLMMYNNMFRIMFDRRFESEDDPLFLRLKALNGERSRLAQSFEYNYGDFIPILRPFLRGYLKICQDVKDRRIALFKKYFVDERKQIASSKPTGSEGLKCAIDHILEAEQKGEINEDNVLYIVENINVAAIETTLWSIEWGIAELVNHPEIQSKLRNELDTVLGPGVQVTEPDLHKLPYLQAVVKETLRLRMAIPLLVPHMNLHDAKLAGYDIPAESKILVNAWWLANNPNSWKKPEEFRPERFFEEESHVEANGNDFRYVPFGVGRRSCPGIILALPILGITIGRMVQNFELLPPPGQSKVDTSEKGGQFSLHILNHSIIVMKPRNC | 0.7 ± 0.01 | 0.7 ± 0.01 | 28 ± 0.1 | 28±0.1 |  |  |  |  |
| FLAG-tagged C4H: amino-terminal FLAG-epitope tagged C4H expressed in yeast from pYeDP60-FC4H (protein, UniProt P92994 1-505, looked up, N-terminal FLAG tag) Trans-cinnamate …: MDLLLLEKSLIAVFVAVILATVISKLRGKKLKLPPGPIPIPIFGNWLQVGDDLNHRNLVDYAKKFGDLFLLRMGQRNLVVVSSPDLTKEVLLTQGVEFGSRTRNVVFDIFTGKGQDMVFTVYGEHWRKMRRIMTVPFFTNKVVQQNREGWEFEAASVVEDVKKNPDSATKGIVLRKRLQLMMYNNMFRIMFDRRFESEDDPLFLRLKALNGERSRLAQSFEYNYGDFIPILRPFLRGYLKICQDVKDRRIALFKKYFVDERKQIASSKPTGSEGLKCAIDHILEAEQKGEINEDNVLYIVENINVAAIETTLWSIEWGIAELVNHPEIQSKLRNELDTVLGPGVQVTEPDLHKLPYLQAVVKETLRLRMAIPLLVPHMNLHDAKLAGYDIPAESKILVNAWWLANNPNSWKKPEEFRPERFFEEESHVEANGNDFRYVPFGVGRRSCPGIILALPILGITIGRMVQNFELLPPPGQSKVDTSEKGGQFSLHILNHSIIVMKPRNC | 1.1 ± 0.09 | 1.1 ± 0.09 | 83 ± 2 |  | 380 ± 7 | 380±7 | 380 ± 7 | 83±2.0 min^1 and 83±2 min^1 |
